Reference: patent US8084276B2, “Method for identifying a subject at risk of developing heart failure by determining the level of galectin-3 or thrombospondin-2” (Universiteit Maastricht, priority 2003, dated 2011)

B1: galectin-3: murine recombinant galectin-3 added exogenously to rat cardiac fibroblasts (protein, UniProt P16110 2-264, looked up)
Galectin-3: ADSFSLNDALAGSGNPNPQGYPGAWGNQPGAGGYPGAAYPGAYPGQAPPGAYPGQAPPGAYPGQAPPSAYPGPTAPGAYPGPTAPGAYPGQPAPGAFPGQPGAPGAYPQCSGGYPAAGPYGVPAGPLTVPYDLPLPGGVMPRMLITIMGTVKPNANRIVLDFRRGNDVAFHFNPRFNENNRRVIVCNTKQDNNWGKEERQSAFPFESGKPFKIQVLVEADHFKVAVNDAHLLQYNHRMKNLREISQLGISGDITLTSANHAMI

Legend:
[1] = tested on: Ren-2 rats; test: Hemodynamics, hypertrophy and fibrosis in Ren-2 transgenic rats with and without ARB; format: in vivo, rat; conditions: 0.05 mg/kg/day candesartan from 7-13 weeks of age
Method: Homozygous Ren-2 rats were obtained from the Max-Delbrück-Zentrum für Molekulare Medizin, Berlin, Germany. 30 male Ren-2 rats on a Sprague Dawley (SD) background and 9 age-matched SD rats as controls were studied. Of 30 Ren-2 rats, 8 were sacrificed at 10-weeks of age and 8 were treated with 0.05 mg/kg/day of candesartan, an angiotensin II receptor type I blocker (ARB), from 7-13 weeks of age. Of the remaining 14 untreated Ren-2 rats, 6 were sacrificed at 13 weeks upon the development of clinical signs of heart failure and designated as HF-S rats. The remaining 8 Ren-2 rats were closely monitored and were sacrificed at 17 weeks when clinical signs of failure had not yet appeared. These rats were designated as HF-R rats. Hemodynamic parameters were determined before sacrifice and heart, lung and body weight were measured after the sacrifice. The procedure for care and treatment of animals was approved by the institutional animal care committee. Homozygous Ren-2 rats were obtained from the Max-Delbrück-Zentrum für Molekulare Medizin, Berlin, Germany. We studied 16 male Ren-2 rats and 8 age-matched controls from the non-transgenic background, Sprague Dawley (SD) rats. […] The remaining 4 Ren-2 rats were monitored and were sacrificed at 17 weeks when signs of clinical failure had not appeared. […] Heart, lung and body weight were measured after the sacrifice. […]

[2] = tested on: Rat cardiac fibroblasts; test: Cardiac fibroblast proliferation, methyl-[3H]thymidine incorporation; format: cell-based; conditions: 24 hours, control 145±4.8, p<0.01
Method: (§1) Rat cardiac fibroblasts were isolated from 2-day-old neonatal Sprague-Dawley rats, as described previously (Pokharel et al., Hypertension, 40: 155-161, 2002). Cells were cultured in Dulbecco's modification of eagle's medium (DMEM) supplemented with 10% foetal bovine serum (FBS), along with 1% L-glutamate, 50 U/mL penicillin, and 0.1 g/L streptomycin, and were incubated at 37° C. in a humidified 5% CO2 atmosphere. Twenty-four hours after seeding, cells were made quiescent by incubation with media containing 0.5% FBS for 24 hours. Cells were then treated with murine recombinant galectin-3 (control, 10 μg/ml and 30 μg/ml) for 24 hours. The number of dividing cells was determined by radio-labelled methyl-[^3H] thymidine incorporation (0.5 μCi per well) assay. Radioactivity was measured in the mixture of fibroblasts and scintillation liquid using LKB-Wallace beta counter (FSA Laboratory Supplies, Loughborough, UK).

[3] = tested on: cardiac fibroblasts; test: Secreted collagen, [3H]proline incorporation assay; format: cell-based, rat
Method: as §1
Secreted collagen was measured using a [^3H]proline incorporation assay. Briefly, cardiac fibroblasts were seeded in 6-well plates at 90-100% confluency. During the final 24 hours of incubation, 15 μCi/ml of L-[^3H]proline was added. Incorporated [^3H] proline from the condition medium was precipitated with 10% trichloroacetic acid (TCA) and counted with the scintillation counter. Statistical Analyses

| Molecule | dP/dtmax ([1]; evaluated at 13 weeks) | LV weight/body weight % ([1]; evaluated in sacrificed animals at 13 weeks) | cardiac fibroblast proliferation (thymidine incorporation) ([2]; galectin-3 at 10 μg/ml) | cardiac fibroblast proliferation (thymidine incorporation) ([2]; galectin-3 at 30 μg/ml) | proline incorporation (collagen production) ([3]; galectin-3 at 10 μg/ml, not significant, p=0.13) | increase in proline incorporation ([3]; galectin-3 at 30 μg/ml vs control) | proline incorporation (collagen production) ([3]; galectin-3 at 30 μg/ml, control 707±52.8 cpm, p<0.05) |
| --- | --- | --- | --- | --- | --- | --- | --- |
| CCOc1nc2cccc(C(=O)O)c2n1Cc1ccc(-c2ccccc2-c2nnn[nH]2)cc1 [candesartan] | 8400±202 mmHg/s | 2.52±0.36% |  |  |  |  |  |
| B1 |  |  | 309±4.8 cpm | 347±17.5 cpm | 992±72 cpm | approximately 66% | 1066±56 cpm |
